Reference: publication PMC9445180 (2022)

Columns and labels:
HTRA2^PD/PDZ-LoopA^HTRA1 = molecular target: T1, HTRA2^PD/PDZ-LoopA^HTRA1 (human, UniProt O43464 134-167; O43464 178-458); test: SPR
T1 chain: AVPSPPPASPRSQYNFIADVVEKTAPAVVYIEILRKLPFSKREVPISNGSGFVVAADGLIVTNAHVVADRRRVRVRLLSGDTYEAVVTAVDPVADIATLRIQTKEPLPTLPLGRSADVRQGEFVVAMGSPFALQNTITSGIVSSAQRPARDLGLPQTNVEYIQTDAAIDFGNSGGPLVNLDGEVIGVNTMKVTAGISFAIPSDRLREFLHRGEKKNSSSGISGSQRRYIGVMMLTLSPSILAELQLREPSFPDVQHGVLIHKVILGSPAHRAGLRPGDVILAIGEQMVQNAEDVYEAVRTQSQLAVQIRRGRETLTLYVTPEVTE

HTRA3^PD/PDZ-LoopA^HTRA1 = molecular target: T2, HTRA3^PD/PDZ-LoopA^HTRA1 (human, UniProt P83110 130-160; P83110 171-453); test: SPR
T2 chain: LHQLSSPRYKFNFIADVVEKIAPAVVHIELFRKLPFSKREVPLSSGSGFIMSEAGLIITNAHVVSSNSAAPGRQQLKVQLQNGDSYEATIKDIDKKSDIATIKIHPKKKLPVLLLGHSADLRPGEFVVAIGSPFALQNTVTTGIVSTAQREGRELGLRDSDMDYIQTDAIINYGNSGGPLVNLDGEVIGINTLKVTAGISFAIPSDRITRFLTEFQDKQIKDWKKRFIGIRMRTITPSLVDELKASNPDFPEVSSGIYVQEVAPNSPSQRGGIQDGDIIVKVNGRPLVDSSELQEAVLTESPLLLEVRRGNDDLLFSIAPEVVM

B1: Fab15H6.v4 (Fab, V domains shown)
VH: EVQLVQSGAEVKKPGASVKVSCKASGYKFTDSEMHWVRQAPGQGLEWIGGVDPETEGAAYNQKFKGRATITRDTSTSTAYLELSSLRSEDTAVYYCTRGYDYDYALDYWGQGTLVTVSS
VL: DIQMTQSPSSLSASVGDRVTITCRASSSVEFIHWYQQKPGKAPKPLISATSNLASGVPSRFSGSGSGTDFTLTISSLQPEDFATYYCQQWSSAPWTFGQGTKVEIK
Binder B1 has a Kd (HTRA2^PD/PDZ-LoopA^HTRA1) of 0.0526 nM and a Kd (HTRA3^PD/PDZ-LoopA^HTRA1) of 0.0356 nM.
